Starred links: 1 amine or outer side, 2 acyl side, 3 side chain; linkers in the order of their positions; H or OH if unused. Non-standard residues stand in square brackets, D forms with d. Groups on a side chain read outwards from the residue. No end group written: not given here. *: point of attachment. C20 diacid = O=C(O)CCCCCCCCCCCCCCCCCCC(=O)*; C18 diacid = O=C(O)CCCCCCCCCCCCCCCCC(=O)*; γGlu = O=C(O)[C@H](CCC(=O)[*:2])N[*:1]; AEEA = NCCOCCOCC(=O)O; Aib = CC(C)(N)C(=O)O

The record followed here is patent publication US12679878B2, “CRF2 receptor agonists and their use in therapy” (SANOFI, priority 2020, dated 2026).

Experiment in all cases: cell-based or functional assay
Assay [1] concerns the target T1, anti-target CRF1R receptor (UniProt P34998 24-415, limits assumed).
T1 sequence (looked up): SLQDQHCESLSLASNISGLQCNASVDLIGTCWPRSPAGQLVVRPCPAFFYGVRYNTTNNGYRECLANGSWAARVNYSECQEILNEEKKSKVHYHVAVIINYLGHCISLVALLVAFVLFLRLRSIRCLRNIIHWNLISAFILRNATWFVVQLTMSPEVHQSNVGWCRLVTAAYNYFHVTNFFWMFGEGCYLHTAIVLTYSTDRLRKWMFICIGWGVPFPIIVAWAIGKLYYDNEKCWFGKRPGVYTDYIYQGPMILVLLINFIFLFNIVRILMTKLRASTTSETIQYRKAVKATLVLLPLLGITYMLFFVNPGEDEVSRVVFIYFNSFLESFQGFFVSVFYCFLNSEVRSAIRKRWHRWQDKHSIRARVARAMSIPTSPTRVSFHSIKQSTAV

Assay [2] has as its target T2, endogenous human CRF2 (NCI-H82 cells) (human, UniProt Q13324 20-411).
T2 sequence (looked up): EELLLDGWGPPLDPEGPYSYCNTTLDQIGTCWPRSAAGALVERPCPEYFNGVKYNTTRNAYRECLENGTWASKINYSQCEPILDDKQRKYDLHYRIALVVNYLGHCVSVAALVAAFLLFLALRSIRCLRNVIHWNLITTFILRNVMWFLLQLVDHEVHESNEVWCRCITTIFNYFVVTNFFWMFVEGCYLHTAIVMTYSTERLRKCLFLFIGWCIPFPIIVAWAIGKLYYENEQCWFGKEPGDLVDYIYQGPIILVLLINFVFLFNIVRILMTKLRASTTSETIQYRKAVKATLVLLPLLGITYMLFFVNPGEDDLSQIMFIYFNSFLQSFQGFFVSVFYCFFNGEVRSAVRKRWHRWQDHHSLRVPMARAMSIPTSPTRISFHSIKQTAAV

Another assay addresses rat CRF2R α receptor (rat, UniProt P47866 20-411).

B1: peptide of SEQ ID NO: 81 (peptide)
peptide: IVLSLDVPIKLK([AEEA-AEEA-γGlu-C20 diacid])QILLEQEKQK[Aib]QREQAETNKQILAQV-NH2
modifications: N-terminus assumed
SMILES: CC[C@H](C)[C@H](N)C(=O)N[C@H](C(=O)N[C@@H](CC(C)C)C(=O)N[C@@H](CO)C(=O)N[C@@H](CC(C)C)C(=O)N[C@@H](CC(=O)O)C(=O)N[C@H](C(=O)N1CCC[C@H]1C(=O)N[C@H](C(=O)N[C@@H](CCCCN)C(=O)N[C@@H](CC(C)C)C(=O)N[C@@H](CCCCNC(=O)COCCOCCNC(=O)COCCOCCNC(=O)CC[C@H](NC(=O)CCCCCCCCCCCCCCCCCCC(=O)O)C(=O)O)C(=O)N[C@@H](CCC(N)=O)C(=O)N[C@H](C(=O)N[C@@H](CC(C)C)C(=O)N[C@@H](CC(C)C)C(=O)N[C@@H](CCC(=O)O)C(=O)N[C@@H](CCC(N)=O)C(=O)N[C@@H](CCC(=O)O)C(=O)N[C@@H](CCCCN)C(=O)N[C@@H](CCC(N)=O)C(=O)N[C@@H](CCCCN)C(=O)NC(C)(C)C(=O)N[C@@H](CCC(N)=O)C(=O)N[C@@H](CCCNC(=N)N)C(=O)N[C@@H](CCC(=O)O)C(=O)N[C@@H](CCC(N)=O)C(=O)N[C@@H](C)C(=O)N[C@@H](CCC(=O)O)C(=O)N[C@H](C(=O)N[C@@H](CC(N)=O)C(=O)N[C@@H](CCCCN)C(=O)N[C@@H](CCC(N)=O)C(=O)N[C@H](C(=O)N[C@@H](CC(C)C)C(=O)N[C@@H](C)C(=O)N[C@@H](CCC(N)=O)C(=O)N[C@H](C(N)=O)C(C)C)[C@@H](C)CC)[C@@H](C)O)[C@@H](C)CC)[C@@H](C)CC)C(C)C)C(C)C
With B1, in assay [1], the “EC50[nM] 0% HSA (cAMP, CRF1R-overexpression CHO cells)” value (from here on “EC50[nM] 0% HSA”) is over 1000 nM and the “Emax (%) (cAMP, CRF1R-overexpression CHO cells)” value (from here on “Emax (%)”) was 23.3%. The “EC50 [nM] (cAMP, NCI-H82 cells)” value in assay [2] was found to be 110 nM. Also, the “EC50 [nM], 0% HSA (cAMP, A7R5 cells)” value with rat CRF2R α receptor was 0.94 nM.

B2: peptide of SEQ ID NO: 101 (peptide)
peptide: IVLSLDVPIKLK([AEEA-AEEA-γGlu-C18 diacid])KILLKQERQKK[Aib]REQAETNKQILERV-NH2
modifications: N-terminus assumed
SMILES: CC[C@H](C)[C@H](N)C(=O)N[C@H](C(=O)N[C@@H](CC(C)C)C(=O)N[C@@H](CO)C(=O)N[C@@H](CC(C)C)C(=O)N[C@@H](CC(=O)O)C(=O)N[C@H](C(=O)N1CCC[C@H]1C(=O)N[C@H](C(=O)N[C@@H](CCCCN)C(=O)N[C@@H](CC(C)C)C(=O)N[C@@H](CCCCNC(=O)COCCOCCNC(=O)COCCOCCNC(=O)CC[C@H](NC(=O)CCCCCCCCCCCCCCCCC(=O)O)C(=O)O)C(=O)N[C@@H](CCCCN)C(=O)N[C@H](C(=O)N[C@@H](CC(C)C)C(=O)N[C@@H](CC(C)C)C(=O)N[C@@H](CCCCN)C(=O)N[C@@H](CCC(N)=O)C(=O)N[C@@H](CCC(=O)O)C(=O)N[C@@H](CCCNC(=N)N)C(=O)N[C@@H](CCC(N)=O)C(=O)N[C@@H](CCCCN)C(=O)N[C@@H](CCCCN)C(=O)NC(C)(C)C(=O)N[C@@H](CCCNC(=N)N)C(=O)N[C@@H](CCC(=O)O)C(=O)N[C@@H](CCC(N)=O)C(=O)N[C@@H](C)C(=O)N[C@@H](CCC(=O)O)C(=O)N[C@H](C(=O)N[C@@H](CC(N)=O)C(=O)N[C@@H](CCCCN)C(=O)N[C@@H](CCC(N)=O)C(=O)N[C@H](C(=O)N[C@@H](CC(C)C)C(=O)N[C@@H](CCC(=O)O)C(=O)N[C@@H](CCCNC(=N)N)C(=O)N[C@H](C(N)=O)C(C)C)[C@@H](C)CC)[C@@H](C)O)[C@@H](C)CC)[C@@H](C)CC)C(C)C)C(C)C
For B2, in assay [1], the “EC50[nM] 0% HSA” value was over 1000 nM and the “Emax (%)” value was -0.34%. Also, in assay [2], the “EC50 [nM] (cAMP, NCI-H82 cells)” value was found to be 4.1 nM. For the same molecule, the “EC50 [nM], 0% HSA (cAMP, A7R5 cells)” value with rat CRF2R α receptor was determined as 1.02 nM.

B3: peptide of SEQ ID NO: 137 (peptide)
peptide: IVLSLD[dV]PIKLK([AEEA-AEEA-γGlu-C18 diacid])QILLKQERQKKQREQAEKNKQILEQV-NH2
modifications: N-terminus assumed
SMILES: CC[C@H](C)[C@H](N)C(=O)N[C@H](C(=O)N[C@@H](CC(C)C)C(=O)N[C@@H](CO)C(=O)N[C@@H](CC(C)C)C(=O)N[C@@H](CC(=O)O)C(=O)N[C@@H](C(=O)N1CCC[C@H]1C(=O)N[C@H](C(=O)N[C@@H](CCCCN)C(=O)N[C@@H](CC(C)C)C(=O)N[C@@H](CCCCNC(=O)COCCOCCNC(=O)COCCOCCNC(=O)CC[C@H](NC(=O)CCCCCCCCCCCCCCCCC(=O)O)C(=O)O)C(=O)N[C@@H](CCC(N)=O)C(=O)N[C@H](C(=O)N[C@@H](CC(C)C)C(=O)N[C@@H](CC(C)C)C(=O)N[C@@H](CCCCN)C(=O)N[C@@H](CCC(N)=O)C(=O)N[C@@H](CCC(=O)O)C(=O)N[C@@H](CCCNC(=N)N)C(=O)N[C@@H](CCC(N)=O)C(=O)N[C@@H](CCCCN)C(=O)N[C@@H](CCCCN)C(=O)N[C@@H](CCC(N)=O)C(=O)N[C@@H](CCCNC(=N)N)C(=O)N[C@@H](CCC(=O)O)C(=O)N[C@@H](CCC(N)=O)C(=O)N[C@@H](C)C(=O)N[C@@H](CCC(=O)O)C(=O)N[C@@H](CCCCN)C(=O)N[C@@H](CC(N)=O)C(=O)N[C@@H](CCCCN)C(=O)N[C@@H](CCC(N)=O)C(=O)N[C@H](C(=O)N[C@@H](CC(C)C)C(=O)N[C@@H](CCC(=O)O)C(=O)N[C@@H](CCC(N)=O)C(=O)N[C@H](C(N)=O)C(C)C)[C@@H](C)CC)[C@@H](C)CC)[C@@H](C)CC)C(C)C)C(C)C
As to B3, in assay [1], the “EC50[nM] 0% HSA” value was over 1000 nM and the “Emax (%)” value came to 22.5%. The “EC50 [nM] (cAMP, NCI-H82 cells)” value in assay [2] stood at 120 nM. The “EC50 [nM], 0% HSA (cAMP, A7R5 cells)” value in the assay with rat CRF2R α receptor was 0.14 nM.

B4: peptide of SEQ ID NO: 130 (peptide)
peptide: IVLSLD[dV]PIKLK([AEEA-AEEA-γGlu-C18 diacid])QILLKQERQK[Aib]QREQAEKNKQILAQV-NH2
modifications: N-terminus assumed
SMILES: CC[C@H](C)[C@H](N)C(=O)N[C@H](C(=O)N[C@@H](CC(C)C)C(=O)N[C@@H](CO)C(=O)N[C@@H](CC(C)C)C(=O)N[C@@H](CC(=O)O)C(=O)N[C@@H](C(=O)N1CCC[C@H]1C(=O)N[C@H](C(=O)N[C@@H](CCCCN)C(=O)N[C@@H](CC(C)C)C(=O)N[C@@H](CCCCNC(=O)COCCOCCNC(=O)COCCOCCNC(=O)CC[C@H](NC(=O)CCCCCCCCCCCCCCCCC(=O)O)C(=O)O)C(=O)N[C@@H](CCC(N)=O)C(=O)N[C@H](C(=O)N[C@@H](CC(C)C)C(=O)N[C@@H](CC(C)C)C(=O)N[C@@H](CCCCN)C(=O)N[C@@H](CCC(N)=O)C(=O)N[C@@H](CCC(=O)O)C(=O)N[C@@H](CCCNC(=N)N)C(=O)N[C@@H](CCC(N)=O)C(=O)N[C@@H](CCCCN)C(=O)NC(C)(C)C(=O)N[C@@H](CCC(N)=O)C(=O)N[C@@H](CCCNC(=N)N)C(=O)N[C@@H](CCC(=O)O)C(=O)N[C@@H](CCC(N)=O)C(=O)N[C@@H](C)C(=O)N[C@@H](CCC(=O)O)C(=O)N[C@@H](CCCCN)C(=O)N[C@@H](CC(N)=O)C(=O)N[C@@H](CCCCN)C(=O)N[C@@H](CCC(N)=O)C(=O)N[C@H](C(=O)N[C@@H](CC(C)C)C(=O)N[C@@H](C)C(=O)N[C@@H](CCC(N)=O)C(=O)N[C@H](C(N)=O)C(C)C)[C@@H](C)CC)[C@@H](C)CC)[C@@H](C)CC)C(C)C)C(C)C
Take B4: in assay [1], the “EC50[nM] 0% HSA” value was over 1000 nM and the “Emax (%)” value is 20.3%. Besides, the “EC50 [nM] (cAMP, NCI-H82 cells)” value in assay [2] was 4.3 nM. Moreover, in the assay with rat CRF2R α receptor, the “EC50 [nM], 0% HSA (cAMP, A7R5 cells)” value is 0.13 nM.

B5: peptide of SEQ ID NO: 135 (peptide)
peptide: IVLSLD[dV]PIKLK([AEEA-AEEA-γGlu-C18 diacid])QILLKQERQK[Aib]QRQQAEKNKQILAQV-NH2
modifications: N-terminus assumed
SMILES: CC[C@H](C)[C@H](N)C(=O)N[C@H](C(=O)N[C@@H](CC(C)C)C(=O)N[C@@H](CO)C(=O)N[C@@H](CC(C)C)C(=O)N[C@@H](CC(=O)O)C(=O)N[C@@H](C(=O)N1CCC[C@H]1C(=O)N[C@H](C(=O)N[C@@H](CCCCN)C(=O)N[C@@H](CC(C)C)C(=O)N[C@@H](CCCCNC(=O)COCCOCCNC(=O)COCCOCCNC(=O)CC[C@H](NC(=O)CCCCCCCCCCCCCCCCC(=O)O)C(=O)O)C(=O)N[C@@H](CCC(N)=O)C(=O)N[C@H](C(=O)N[C@@H](CC(C)C)C(=O)N[C@@H](CC(C)C)C(=O)N[C@@H](CCCCN)C(=O)N[C@@H](CCC(N)=O)C(=O)N[C@@H](CCC(=O)O)C(=O)N[C@@H](CCCNC(=N)N)C(=O)N[C@@H](CCC(N)=O)C(=O)N[C@@H](CCCCN)C(=O)NC(C)(C)C(=O)N[C@@H](CCC(N)=O)C(=O)N[C@@H](CCCNC(=N)N)C(=O)N[C@@H](CCC(N)=O)C(=O)N[C@@H](CCC(N)=O)C(=O)N[C@@H](C)C(=O)N[C@@H](CCC(=O)O)C(=O)N[C@@H](CCCCN)C(=O)N[C@@H](CC(N)=O)C(=O)N[C@@H](CCCCN)C(=O)N[C@@H](CCC(N)=O)C(=O)N[C@H](C(=O)N[C@@H](CC(C)C)C(=O)N[C@@H](C)C(=O)N[C@@H](CCC(N)=O)C(=O)N[C@H](C(N)=O)C(C)C)[C@@H](C)CC)[C@@H](C)CC)[C@@H](C)CC)C(C)C)C(C)C
In the case of B5, in assay [1], the “EC50[nM] 0% HSA” value is over 1000 nM and the “Emax (%)” value worked out at 28.4%. Further, in assay [2], the “EC50 [nM] (cAMP, NCI-H82 cells)” value was found to be 110 nM. The “EC50 [nM], 0% HSA (cAMP, A7R5 cells)” value with rat CRF2R α receptor turned out to be 0.13 nM.
